Assay results taken from the NTF2 design screens of Basanta et al. (2020).

Experiment: protease stability score; higher = more stable; yeast display proteolysis, trypsin and chymotrypsin;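 also: log10 excess protease needed over predicted unfolded state with 0 meaning unfolded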

Compared with “DEEVERLFKRFMSAVDEGNPDELKKQIDPNAKQHIGDKTYHGRETIASRIVKRRQKMRVTWKSISITDHNGTIKVTAHAVFNHNGRPKEVQLDIEVRAHGDQMKNFRVQVRG”, “DEEVFDEFIKHMETGDFRYLQRMFDPNAKASVGNKTVHGREQVQTLLEQLHSQVDHYHLKDVDNNENRMRVHFVLNVNGKNIEAENVFEVRNGRLKHLSIKFRNPEDQEDARRRLE” is higher in protease stability score: 0.328 for the first, 1.12 for the second.

First: DEEVHKAITHYIEALHKGDPDRAANQMDENVRIEIGDKSITGREHAKHHLERLFKQMEFRITVDRVEVHNGTATAEIHWSSDRNGKPDSNTRRMTAEVHNGKIKQIVFKSDS
Second: DEEVKDFAEKMLKNWHTGNWQHFAKLLDENAKIVIGDKRYHGTENFERMADSIQKQMSIRIESMSVEVHGEKAKFSATVVENHNGNPTRFHISAEVTVRGDKVDHFNQQNDS
The protease stability score of the first is lower: 1.02 for the first, 1.04 for the second.

First: DEEVKHSVDKYLQAVRQGDPDKLREMADENVTVDIGDTTYHGMSEYARRVVERQKKIRIHYDLKSLTVSGNHVKIDQEVVKHHNGKPERNRVTVIMHLNNGRIQSMSVKVDG
Second: DEEVKRLAERILSALERGDPQQISDNFDPNARLEIGDKRIHGREELRKYVDTVRKTQRISIRSFRVSVHNGQVDIDIHFENEHNGDPDERRRSINIQASNGKAKNVVYQDNK
The protease stability score of the first is higher: 0.277 for the first, -0.336 for the second.

Compared with “DEEVKSRADEFIKALKTGDPETISRLMDPNAQVEVGDKTIHGRENIMREIHNLKHRMNLSMEINNVDVQGDTVNIDAVVRFTHNGKPSEHKVDIQVVAQGDKIDHVVFDSTK”, “DEEVKSVAEQLMDVLQKGDPKQMSRLADKDVKINVGDKQYDGSEQLEKAVEDWKDEMRFQIEHVSISARGDKANVDFHVEFSFNGKPHSREVKVYIKVHNGRIKYLEYRVDPNEERKIKK” is lower in protease stability score: 1.22 for the first, -0.267 for the second.

Compared with “DEEVKTLVERLVEALNTGDPDSAMHLVDENAKFQYGDRELHGRENVHKFVEDMKREIRIDMEVKRLRVEPGRVKLTAEFSLSVNGQPDHQSVTMRATAHNGQLKDVQFRLPPEKLEKLKS”, “DEEVKTVAEEFWKAIQTGDPDQVKTQVDENARMRVGDKSIHGSDNISTDVERERKEIKVKYNIQDIRASNGTVRVRMDVRRNHNGKPREHEQTMTQTIDNGKIQDVNISTDG” is lower in protease stability score: -0.199 for the first, -0.46 for the second.

First: DEEVLDDVVKVMHQNDFSRLKELFDKNATIEVGDKRYHGREEAHKLMDIIKKKVDHVRIDKVHKSGNKVRIDAILEYNGNHMKVVFVIKLHNGQAKNIHIEFTSENLQNKFKTLVD
Second: DEEVLDFVKTMIKVEETGDEEKLKEMFDKNVKARVGDKKYHGMDHQARTIRKERESIKFKIKSITMRYKDGRVHASARVVRHENGKPDEYRETYVLQIHNGKVKTYSKQTDS
The protease stability score of the first is higher: 1.02 for the first, -0.188 for the second.

First: DEEVLDTVLKALSTNNEEQFHRMADPNDRVSYGDKSIHGMVKAADVQREFRKRVDHIHIQRYDSEGDKAKVTYVAHVDGRNINITITFDVRNGTIRSINIRARNEKNQKRFEEVVG
Second: DEEVLEEAKKRVETNDPQEFAHNVDENAEMTIGDKQYTGRDQFKHVADAWYERADKIEIKSYTTHNGKIHVNMRMRFDGRDIVFIVEFRVKNGRVQEYKFHVRDETAKTLQQQMLS
The protease stability score of the first is higher: 0.245 for the first, 0.231 for the second.

First: DEEVLEQVKKYIDAEKSNDPDQAVKLFDENADMQIGDKRVNGREQIKTEIERRIREMNRDVEVTHVHVDNGRATLTVRLRFTVNGKPHEDRFIIQAHATNGRINTLTVHFDEQSKRDVDK
Second: DEEVLHLADRWWEAVDRGNERQLKDNADPNVKVRVGDKTIRGRDQMAKEVRHRREEQRVNYHHFRQDVSGDKANVTVHYTREHNGKPETNVIEVVFQAHNGKIVSITVRHDG
The protease stability score of the first is higher: 0.741 for the first, -0.148 for the second.

Going from “DEEVLKVAHDWFENVTQGDPDKLSRLMDKDARVNVGEKQYHGREEIMRQHERENKEAEVTFQKMDFKVTGDRAVVNVRVDVNINGQPFEVTFIFKLEVHNGRIKQIEMDFSEEQWDKLRR” to “DEEVLQEYREAFEEGDEERIQNLADENVKVTYGDKDYHGRHDMRKFMKWLKRAADRIEIKRYTQTGDKLRIVVVMHVNGQTIKFSVVVRVHNGNVKSVRMDATSEEDRKHFERVVD”, the protease stability score rises from -0.211 to 0.755.

First: DEEVNHQMSRMWEANKRGDEHTLRELVDPNAKIDVGDKRVHGMEEYVKQVRNRREDLRWRFKIDHMSVDGDTVKFRARAVENENGRPQSYKFEQNVRVHNGKLTEQNQQDHG
Second: DEEVQELVERIMTAFRTGNPEEVHKNLDPNAHIEVGDKRLHGMETIVHTIERKLRHARIDMKIDEMEVRNGRVEARVSFHVDVNGEPYSNSFSFQIEARNGKVKKVRVQIDPRDQRKMDS
The protease stability score of the first is lower: 0.181 for the first, 0.877 for the second.

First: DEEVQNLFEELVEAVKTGDEDRLRENVDPNATFEYGDKTFHGMDTFVKTVKKIRESMRLTLEVKSYEVQGDKVKAEVDAKQDHNGQPVSYTMDLHIDARNGKVKRIVRQVPEEDKTRIER
Second: DEEVQRQLENNWQKMREGDEEHLTRHVDENARFDVGDKRVRGMENYVKDVRREREEMHVNMTYDDMHVQGNEIRFTVRARWDVNGKPYDDNFDHKYEYHNGRLKSAHVRVDEDFERKRRK
The protease stability score of the first is higher: -0.032 for the first, -0.089 for the second.

Compared with “DEEVREVVKKMLEALKTGNSEQVRRNIDPNARLHVGEFDYHGQTQISEAVKRLSNEIKINYKDMKMRLHNGRVDVKVHQQNNSNGKPEEKTWRATIVAKNGRIKEIDQRDDK”, “DEEVRHVAEEHFRAFSDNDPDRAKQLADPNARFQYGDREIHGMEDFVKHLETLKRDMRIQIHIKSMDVHNGRVDVTFNLMAHVNGQPFRIEVRATFEAHNGHLVEVQYRFDKKWQKTLES” is higher in protease stability score: -0.481 for the first, 0.861 for the second.

First: DEEVRKAYHDAMKAEEKGDEDRIRELFDPNARVQVGDKTYQGREDISHNLAREQKHARYHIKHVDLQVHNGRLTVKQTYDFQHNGQPNSDRDKATIEADGENIKDVEVKQNP
Second: DEEVSEAVQRYLNALKHNNPDQVQEQMDPNARVQYGDKVLTGREDIKTFMDTKIEQMRLEIKSVSVDVHGEEVRVEADVVYTHNGQPRRNKITITARVHNGVFKSMRVETRG
The protease stability score of the first is lower: -0.27 for the first, -0.064 for the second.

First: DEEVVHDLENQFRKNNWEEFARQADENAKVNIGEFEISGRSQIEEWAHRVKKQVDHIDVKHVSYDEDHLRMRVVVVVNGRKFDFEVIINVSNGEVKHMEVRFRDPSQETEWLNQIN
Second: DEEVVKLLLELMKAWRTGDRDKAVKLMDPNVEIQVGDTYIHGREQNREEIKRIKDEIRWELSVKSYNQHNGQARIDADVTINVDGHPTHYRVDIRAEATNGEVKKITYNVPEEVLEEVKR
The protease stability score of the first is higher: 1.61 for the first, 0.026 for the second.

Compared with “DEEVVRQIEDNLNAQRRNDHEKLKENMDPNATVNVGDKQIHGMSQFAQHVRDMFRHIRRSIKDFRIEVRPNHANVDVKFEVNINGKPESMSANVSVRVTNGTVQEMTIRVDPEHVKRIRR”, “DEEWEETMTRLVKTGDFQSLVRLAPEDVKYVVGEKRIHGREHASEFAKKLTEQIDRIQVKEMHVSGDRVRADFELEFNGRKLKAVLVVKIHGDKVREVMIEVTDEHDEDILREIDD” is lower in protease stability score: 0.816 for the first, 0.8 for the second.

First: DEEWLHRFLQQYRSGDEDQMVRNMDKDVKIDVGDKEIHGREEAERWYRELKKRIDHFEVDHIKIQGESATADVRMNVNGRDVKFTLHVEAHNGRVKYVRLQATSSEVKTRMDRALG
Second: DEEYAHQLREFLEAWVSGDENRAKQLADPNARVNVGEERISGMDEFMKEVRKRKKEMRIEVKHIKIEVRPNKAKADVKFRVNFNGTPFDVNQKWQAHWHNGKLHSVTVNMDEDQKRFEKG
The protease stability score of the first is lower: 0.198 for the first, 0.451 for the second.

Going from “DEEYNKKVQDIFNTNDPSQFKSLIDPNARMEVGDHVFHGRHNIVKHLKKFRDQVDHFEIKEIDVKGNKLSMEFVAVVNGKRVRATMSQQAHNGRMQEIRIKATSEEDKKILKEVTS” to “DEHAARVFLELLKAAETGDEKRLKRLADPNARIQVGDKHVDGMDEATKKIVKTWEKSRIRFEIKSYDVDGEKVRVNMQMTNRDNGEPDSKNAHFTVEVRNGHIKHADLQHHG”, the protease stability score falls from -0.048 to -0.223.

Compared with “DEHAARVQHEIQKVQETGDEERVRELVDPNVKIQVGDKTIHGMDEYLTRVKKRMDELRFSVTWRHYDVHNGQVNVKVEFTKDHNGKPQRDVMVMKFHIHNGRVQFLSMEKDQ”, “DEHADTIVKKYLDAIKSNNPEDVKENVDKDVDVEVGDTSWHGRDEVVTRVQNELDEIRIDMKVDEVNNQGNHVEVKMHMTLDINGKPATVDWDVKFDIQNGRIQSIRLRPDEENRKQKEK” is lower in protease stability score: 0.843 for the first, 0.057 for the second.

Compared with “DEHAEDLFRQLKEAEDTGDEDHFRRLVDPNAHFEIGNKHVHGREERATQMKQQKKQIRVEIKSMDYRVDGEKVEARVDATYNFNGRPDRMHIVIDIEFHNGRVTNARYRLDEEDLKRVEK”, “DEHAEHIATEWWKAIRTNNPERARELVDKDVKINVGDKRIHGREQVDREIKRLNNTSRQDYKSMHMTVKGDKVRVEMNKRQEDNGNPRSKNFEVVFDFHNGRIRHISVHETK” is lower in protease stability score: 0.308 for the first, -0.381 for the second.

First: DEHAERIFRKWMTIYKKGDPKKVKELLDPNARVRIGDKRIRGRETAAEQQSTRADEMRNDVKVKHLEVNGDDLVVRIKFTSEENGNPKDQEAKFDWNIHNGKIRSQTQDIKG
Second: DEHAFKRIDEMLTAFQKNDPNKIQEYMDENVKVQYGDKSVHGRDEIAKSKQETREHLRLEIRIENYDVNGDTIHVHAKVIFNVNGDPLKFEVDIVARLHNGKIKSMQLQFSHEQQKKVES
The protease stability score of the first is lower: -0.017 for the first, 0.682 for the second.

Compared with “DEHAHRQFKHYLDALKENNEEDLKKQMDKDAEAKYGNQELHGRDDAARHLKRELEEIRVDITEYRIRNQGNNIEAHVRFVVKHNGQPSKMTVLITASADENHMRTIEFDEKK”, “DEHAIKLLKKIYEAWEEGDPDEARENADPNARYIIGDKTLHGMENIVKEWQRRYDESRIDYKHIDVQDDNGRANADVRYVVQHNGRPERKTMTVIVEVHNGRVTQIHFQDTQ” is lower in protease stability score: 0.248 for the first, -0.01 for the second.

Compared with “DEHAKDVFDTLREARKRGDEDTMKRQVDPNAKAQVGDKTYHGSDEIARRLTEENRESRVEYHTMSVEIQGDHVVVRFRARYEHNGQPSHFHAVEVVKADNGQIVFLVLQETK”, “DEHAKELAKEFMEAWTKGDPDKAATLADPNVRANVGEFNVHGREDAHRAVDRFRRQMHVELDIRSMRVQGNKVQVDVSVTVTHNGRPHSNRYVVLIIFHNGRIRSVHRRREG” is higher in protease stability score: 0.06 for the first, 0.176 for the second.

First: DEHAKHVVETYMTAQKHNNPKDAQKMVDPNARFSVGDKEVQGSEQLDKEIQRDNKEIREHVESMSVDVDGDKAHVDRTVKFQRNGKPHKLKVHLNFRLTNGRIKTVQVDEDG
Second: DEHAKKLAERILEAISNNNEEDIQKNIDPNAKIQVGDRQVHGREDLQKQYQDFRHHARIQNRLRSVRADGDHVTLEIEVVFKVNGNPVNNTVNMSMVIENGRVKMREVQVPEEVQDTIDQ
The protease stability score of the first is lower: -0.308 for the first, 0.075 for the second.

First: DEHAKKRLEEWLRNRQQGDDERLVQMADPNVRIEYGDKSFKGRDDVREWAQKESKSMDLQLKSVDLKVSGDKVDAKITFTQDENGKPDHATMNLVMKQDNGHIKVLRYEVTK
Second: DEHAKRVLHEWLRAIQTGDPDKAMRLADKDARIRVGDKVISGREQLHKWVETLKKHIKVQIEDFNIEVHGEELELNIVATLNDNGEPQRSRWVVTVIIRNGEMKSLTQRDDS
The protease stability score of the first is higher: 0.084 for the first, 0.009 for the second.

Compared with “DEHAKRVVEKAWKALDTGDPKTMEDMLDPNARQRYGDTSVHGRENIIHKLEKDSKEIRFKIKIDNITVHGDKIDVRMLVTERRDGQPRQTHRVATFRIHNGRLEEADFQKDG”, “DEHAMERIDDFFQALRNGDPKNLKEQIDPNVSLHYGDKEVTGKDRAAKEMAQIFRHIRLEFDIKSVSAHNGRVTVNAEVVDEENGRPHSRRVQNNAVWHNGVIQSFHVKETK” is lower in protease stability score: -0.073 for the first, -0.402 for the second.
